Measured values: patent publication US20020182180A1

What was measured:
[1] = target: V3 loop-deleted (Δ297-329) HIV-1IIIB env glycoprotein expressed by vv-7ΔV3 (HIV-1 IIIB isolate) (UniProt P04578); test: cell-based or functional assay
[2] = target: CD4 receptor on CD4+ cells (SupT-1 cells; IL-2-dependent CD4+ T lymphocytes) (UniProt P01730); test: cell-based or functional assay

In the case of “F105, human mAb directed against a discontinuous gp120 epitope overlapping the CD4 binding site (antibody)”, the ADCC specific lysis (51Cr release, E:T 50:1) [1] is reported as < 4%.
With “V3 loop-deleted (Δ297-329) HIV-1IIIB env glycoprotein expressed by vv-7ΔV3 (from UniProt P04578 33-296; P04578 330-856)” the activation-induced apoptosis of CD4+ T lymphocytes (fragmented DNA, PI, 72 hrs) [2] was < 7%.
“full-length (wild-type) HIV-1IIIB env glycoprotein expressed by vv-WTP-2 (from UniProt P04578 33-856)” was tested, and the apoptotic cells (sub-G1 DNA content, PI staining) in infected SupT-1 cells, 16 hr [2] was 20% and the syncytium formation in infected SupT-1 cells [2] was 80 to 90%.
